Data as given in patent US9193755B1, “TFEB variants and uses thereof” (Fondazione Telethon, priority 2011, dated 2015).

Columns and labels:
HeLa cells [1] = assay: Autophagosome number / LC3II level in HeLa cells; format: cell-based, human
Description: Cells or tissues were solubilized in RIPA buffer supplemented with protease (ROCHE) and Phosphatase (SIGMA) inhibitors. From 10 to 30 micrograms were loaded on 4-12% Bis-Tris gel (NUPAGE, Invitrogen), transferred to PVDF membranes and analyzed by western blot using the ECL method (Pierce). The following antibodies were used: LC3 (Novus Biological), FLAG, b-ACTIN, TUBULIN (SIGMA), HA (Covance), H3, ERK1/2, p-ERK1/2, p-AKT, p-70S6K (Cell Signaling), ERK2 (Santa Cruz). Protein levels were quantified by using ImageJ software analysis.

HeLa cells [2] = assay: Subcellular localization and mobility of mutated TFEB-3xFlag in HeLa cells; format: cell-based, human; conditions: for TFEB subcellular localization of serine-to-alanine mutants: HeLa cells, Flag immunostaining
Protocol: Cells were transiently transfected with DNA plasmids pRK5-mycPAT1, pCEP4-TFEB-his, pC1G2-TFEB, and p3 x FLAG-CMVTFEB using lipofectamine2000 or LTX (Invitrogen) according to the protocol from manufacturer. Site-direct mutagenesis was performed according to the manufacturer instructions (Stratagene) verifying the correct mutagenesis by sequencing.
Cells were seeded at 50% of confluence in 6 well dishes and serum starved overnight (ON). Normal medium was added the following day either in presence of DMSO or kinase inhibitors. Subcellular fractionation was carried out as previously reported. Briefly, cells were lysed in 0.5 Triton X-100 lysis buffer (50 mM Tris-HCl, 0.5% triton, 137.5 mM NaCl, 10% glycerol, 5 mM EDTA supplemented with fresh protease and phosphatase inhibitors. Supernatant represented cytosolic fraction while nuclear pellet was washed twice and lysed in 0.5 Triton X-100 buffer 0.5% SDS and sonicated.

TFEB target genes = assay: qPCR of TFEB target genes after transfection with normal and mutant TFEB plasmids; format: cell-based, human; conditions: 24 h post-transfection, compared to TFEB(WT), TFEB(S332A) and TFEB(S402A)
Description: (§1) Asterisks in the graph indicate that the P-value was <0.05.

[3] = tested on: autophagy-related genes in HeLa cells; assay: qPCR of autophagy-related genes in TFEB stable overexpressing HeLa cells; format: cell-based, human; conditions: TFEB stable overexpression
Description: as §1

[4] = tested on: HeLa cells stably expressing GFP-mRFP-LC3; assay: RFP-GFP tandem tagged LC3 autophagosome-lysosome fusion assay; format: cell-based, human; conditions: TFEB overexpressing cells compared to control cells
long-lived proteins = assay: Degradation of long-lived proteins; format: cell-based; conditions: TFEB overexpression
Protocol: Sub-confluent cells were incubated with L-U^14C-serine for 20 h and chased for 1 h with cold media to degrade short-lived proteins. Subsequently cells were incubated with either normal media or starvation media (eventually in the presence of 3-MA) for 4 h. The rate of long-lived protein degradation was calculated from the ratio of soluble radioactivity in the media to that insoluble in the acid-precipitable cell pellet.

[5] = tested on: MEFs, NSCs, HeLa, and COS-7 cells; assay: Release of lysosomal enzymes in the culture medium; format: cell-based; conditions: TFEB overexpression; acid phosphatase, beta-galactosidase, beta-hexosaminidase
Protocol: Lysosomal enzymes acid phosphatase, beta-galactosidase, and beta-hexosaminidaseactivities were measured using the appropriate fluorimetric or colorimetric substrates. SGSH activity was measured following protocols described in Fraldi et al., Hum Mol Gen 2007 (33).

[6] = tested on: mouse embryonic fibroblast (MEFs); assay: Electron microscopy of MEFs infected with lentivirus overexpressing TFEB; format: cell-based
Protocol: Control and TFEB-overexpressing cells were washed with PBS, and fixed in 1% glutaraldehyde dissolved in 0.2 M Hepes buffer (pH 7.4) for 30 min at room temperature. The cells were then postfixed for 2 h in OsO4. After dehydration in graded series of ethanol, the cells were embedded in Epon 812 (Fluka) and polymerized at 60° C. for 72 h. Thin sections were cut at the Leica EM UC6, counterstained with uranyl acetate and lead citrate. EM images were acquired from thin sections using a Philips Tecnai-12 electron microscope equipped with an ULTRA VIEW CCD digital camera (Philips, Eindhoven, The Netherlands). Quantification of vacuolization was performed using the AnalySIS software (Soft Imaging Systems GmbH, Munster, Germany). Selection of cells for quantification was based on their suitability for stereologic analysis, i.e. only cells sectioned through their central region (detected on the basis of the presence of Golgi membranes) were analyzed.

LSDs = conditions: TFEB overexpression (45); cited from earlier work

B1: TFEB(S142A): TFEB variant with serine 142 mutated to alanine (protein, UniProt P19484 1-476, looked up, variant S142A)
Transcription factor EB: MASRIGLRMQLMREQAQQEEQRERMQQQAVMHYMQQQQQQQQQQLGGPPTPAINTPVHFQSPPPVPGEVLKVQSYLENPTSYHLQQSQHQKVREYLSETYGNKFAAHISPAQGSPKPPPAASPGVRAGHVLSSSAGNSAPNAPMAMLHIGSNPERELDDVIDNIMRLDDVLGYINPEMQMPNTLPLSSSHLNVYSSDPQVTASLVGVTSSSCPADLTQKRELTDAESRALAKERQKKDNHNLIERRRRFNINDRIKELGMLIPKANDLDVRWNKGTILKASVDYIRRMQKDLQKSRELENHSRRLEMTNKQLWLRIQELEMQARVHGLPTTSPSGMNMAELAQQVVKQELPSEEGPGEALMLGAEVPDPEPLPALPPQAPLPLPTQPPSPFHHLDFSHSLSFGGREDEGPPGYPEPLAPGHGSPFPSLSKKDLDLMLLDDSLLPLASDPLLSTMSPEASKASSRRSSFSMEEGDVL
modifications: 3xFlag tag
notes: TFEB variant with serine 142 mutated to alanine
For B1, the “induction of the autophagic/lysosomal system (autophagosomes, lysosomes, autophagolysosomes)” value (HeLa cells [1]; compared to wt TFEB) was “stronger induction”, the “TFEB subcellular localization of serine-to-alanine mutants” value (HeLa cells [2]) was “constitutive nuclear localization” and the “nuclear localization of mutant TFEB” value (HeLa cells [2]; compared to TFEB(WT), TFEB(S332A) and TFEB(S402A)) was “significantly increased nuclear localization”. The “expression levels of TFEB target genes” value (TFEB target genes) was “increased expression levels”.

B2: S211A: TFEB with serine-to-alanine mutation at position 211 (protein, UniProt P19484 1-476, looked up, variant S211A)
Transcription factor EB: MASRIGLRMQLMREQAQQEEQRERMQQQAVMHYMQQQQQQQQQQLGGPPTPAINTPVHFQSPPPVPGEVLKVQSYLENPTSYHLQQSQHQKVREYLSETYGNKFAAHISPAQGSPKPPPAASPGVRAGHVLSSSAGNSAPNSPMAMLHIGSNPERELDDVIDNIMRLDDVLGYINPEMQMPNTLPLSSSHLNVYSSDPQVTASLVGVTSSACPADLTQKRELTDAESRALAKERQKKDNHNLIERRRRFNINDRIKELGMLIPKANDLDVRWNKGTILKASVDYIRRMQKDLQKSRELENHSRRLEMTNKQLWLRIQELEMQARVHGLPTTSPSGMNMAELAQQVVKQELPSEEGPGEALMLGAEVPDPEPLPALPPQAPLPLPTQPPSPFHHLDFSHSLSFGGREDEGPPGYPEPLAPGHGSPFPSLSKKDLDLMLLDDSLLPLASDPLLSTMSPEASKASSRRSSFSMEEGDVL
With B2 the “TFEB subcellular localization of serine-to-alanine mutants” value (HeLa cells [2]) was “constitutive nuclear localization”.

B3: TFEB: transcription factor EB, Seq. Id No. 2, overexpressed from plasmid, lentivirus or stable clone (protein, listed as Homo sapiens)
chain: MASRIGLRMQLMREQAQQEEQRERMQQQAVMHYMQQQQQQQQQQLGGPPTPAINTPVHFQSPPPVPGEVLKVQSYLENPTSYHLQQSQHQKVREYLSETYGNKFAAHISPAQGSPKPPPAASPGVRAGHVLSSSAGNSAPNSPMAMLHIGSNPERELDDVIDNIMRLDDVLGYINPEMQMPNTLPLSSSHLNVYSSDPQVTASLVGVTSSSCPADLTQKRELTDAESRALAKERQKKDNHNLIERRRRFNINDRIKELGMLIPKANDLDVRWNKGTILKASVDYIRRMQKDLQKSRELENHSRRLEMTNKQLWLRIQELEMQARVHGLPTTSPSGMNMAELAQQVVKQELPSEEGPGEALMLGAEVPDPEPLPALPPQAPLPLPTQPPSPFHHLDFSHSLSFGGREDEGPPGYPEPLAPGHGSPFPSLSKKDLDLMLLDDSLLPLASDPLLSTMSPEASKASSRRSSFSMEEGDVL
In the case of B3, the “AKT1 FOLD INCREASE” value [3] is reported as 1.2 fold, the “AMBRA1 FOLD INCREASE” value [3] is reported as 1.2 fold and the “APP FOLD INCREASE” value [3] is reported as 1.4 fold. For the same molecule, the “ARSA FOLD INCREASE” value [3] was 1.3 fold, the “ATG3 FOLD INCREASE” value [3] was 1.2 fold and the “ATG4A FOLD INCREASE” value [3] was 1.2 fold. For the same molecule, the “ATG4B FOLD INCREASE” value [3] was 1.3 fold, the “ATG4C FOLD INCREASE” value [3] was 1.1 fold and the “ATG4D FOLD INCREASE” value [3] was 1.6 fold. The “ATG5 FOLD INCREASE” value [3] was 1.2 fold, the “ATG7 FOLD INCREASE” value [3] was 1.2 fold and the “ATG9A FOLD INCREASE” value [3] was 1.1 fold. The “ATG9B FOLD INCREASE” value [3] was 5.6 fold, the “ATG10 FOLD INCREASE” value [3] was 1.1 fold and the “ATG12 FOLD INCREASE” value [3] was 1.2 fold. For the same molecule, the “ATG16L1 FOLD INCREASE” value [3] was −1.2 fold, the “ATG16L2 FOLD INCREASE” value [3] was 1.1 fold and the “BAD FOLD INCREASE” value [3] was 1.0 fold. For the same molecule, the “BAK1 FOLD INCREASE” value [3] was 1.4 fold, the “BAX FOLD INCREASE” value [3] was 1.2 fold and the “BCL2 FOLD INCREASE” value [3] was 1.5 fold. The “BECN1 FOLD INCREASE” value [3] was 1.2 fold, the “BID FOLD INCREASE” value [3] was 1.2 fold and the “BNIP3 FOLD INCREASE” value [3] was 1.1 fold. The “CLN3 FOLD INCREASE” value [3] was 1.5 fold, the “CXCR4 FOLD INCREASE” value [3] was 1.3 fold and the “DRAM FOLD INCREASE” value [3] was 1.8 fold. For the same molecule, the “EIF2AK3 FOLD INCREASE” value [3] was 1.4 fold, the “EIF4G1 FOLD INCREASE” value [3] was 1.3 fold and the “FAM176A FOLD INCREASE” value [3] was 1.6 fold. The “GAA FOLD INCREASE” value [3] was 1.3 fold, the “GABARAP FOLD INCREASE” value [3] was 1.1 fold and the “GABARAPL1 FOLD INCREASE” value [3] was 1.0 fold. The “GABARAPL2 FOLD INCREASE” value [3] was 1.1 fold, the “HGS FOLD INCREASE” value [3] was −1.1 fold and the “HTT FOLD INCREASE” value [3] was 1.0 fold. The “MAP1LC3A FOLD INCREASE” value [3] was 1.1 fold, the “MAP1LC3B FOLD INCREASE” value [3] was 1.2 fold and the “PIK3C3 FOLD INCREASE” value [3] was −1.2 fold. The “PIK3R4 FOLD INCREASE” value [3] was 1.1 fold, the “PTEN FOLD INCREASE” value [3] was 1.1 fold and the “RAB24 FOLD INCREASE” value [3] was 1.2 fold. The “RGS19 FOLD INCREASE” value [3] was 1.2 fold, the “SNCA FOLD INCREASE” value [3] was 1.6 fold and the “SQSTM1 FOLD INCREASE” value [3] was 2.4 fold. For the same molecule, the “TP53 FOLD INCREASE” value [3] was 1.1 fold, the “ULK1 FOLD INCREASE” value [3] was 1.1 fold and the “UVRAG FOLD INCREASE” value [3] was 1.8 fold. The “VPS11 FOLD INCREASE” value [3] was 1.4 fold, the “VPS18 FOLD INCREASE” value [3] was 1.4 fold and the “WIPI FOLD INCREASE” value [3] was 2.5 fold. For the same molecule, the “number of autophagosomes (LC3 marker)” value (HeLa cells [1]; stable TFEB overexpression in HeLa cells) was “increased significantly”, the number of autophagolysosomes [4] was “higher” and the “degradation of long-lived proteins” value (long-lived proteins) was “enhanced”. The “release of lysosomal enzymes in the culture medium” value [5] was “increases the release of lysosomal enzymes”, the “number of autophagosomes by electron microscopy” value [6] was “An increase in the number of autophagosomes” and the “substrate clearance and cellular vacuolization in LSDs” value (LSDs) was “able to promote substrate clearance and to rescue cellular vacuolization”.

B4: TFEB S142D: phospho-mimetic mutant of TFEB (protein, UniProt P19484 1-476, looked up, variant S142D)
Transcription factor EB: MASRIGLRMQLMREQAQQEEQRERMQQQAVMHYMQQQQQQQQQQLGGPPTPAINTPVHFQSPPPVPGEVLKVQSYLENPTSYHLQQSQHQKVREYLSETYGNKFAAHISPAQGSPKPPPAASPGVRAGHVLSSSAGNSAPNDPMAMLHIGSNPERELDDVIDNIMRLDDVLGYINPEMQMPNTLPLSSSHLNVYSSDPQVTASLVGVTSSSCPADLTQKRELTDAESRALAKERQKKDNHNLIERRRRFNINDRIKELGMLIPKANDLDVRWNKGTILKASVDYIRRMQKDLQKSRELENHSRRLEMTNKQLWLRIQELEMQARVHGLPTTSPSGMNMAELAQQVVKQELPSEEGPGEALMLGAEVPDPEPLPALPPQAPLPLPTQPPSPFHHLDFSHSLSFGGREDEGPPGYPEPLAPGHGSPFPSLSKKDLDLMLLDDSLLPLASDPLLSTMSPEASKASSRRSSFSMEEGDVL
modifications: 3xFlag tag
With B4 the “translocation into the nucleus upon nutrient starvation” value (HeLa cells [2]; nutrient starvation) was “unable to translocate into the nucleus”.
